Reference: patent US20220281980A1
“And” between values parts separate entries of the source, which are not always exact repeats. Equal entries are not always repeated. Blank lines part the entries; values can stand above or below the binder they belong to.

How the values were obtained:
[1] = molecular target: human MICA/B endogenously expressed on A2058 cells (MICA alleles *008/*018) (human) (UniProt Q29983); test: flow cytometry, tumor cells with endogenous MICA/B
[2] = molecular target: overexpressed cyno MICA/B (CHO clones #4 and #6); test: Scatchard analysis, 125I-MICA.36 on transduced CHO cells
[3] = molecular target: overexpressed human MICA*008 and MICB*005 on CHO cells; test: as above

EC50 [1]: 5.39 nM
B1: 19G6 (antibody, V domains shown)
VH: QVQLVESGGGVVQPGRSLRLSCAASGFTFSNYAMHWVRQAPGEGLEWVALIWYDGSNKFYGDSVKGRFTISRDNSKNTLYLQMNSLSAEDTAVYYCAREGSGHYWGQGTLVTVSS
VL: AIQLTQSPSSLSASVGDRVTITCRASQGISSALAWYQQKPGKVPKSLIYDASSLESGVPSRFSGSGSGTDFTLTISSLQPEDFATYYCQQFNSYPITFGQGTRLEIK

Kd [2]: 5 to 11 nM | Kd [3]: 1 to 2 nM
B2: MICA.36 (antibody, V domains shown)
VH: B1 VH
VL: B1 VL

EC50 [1]: 7.68 nM and 10.9 nM
B3: 16A5 (antibody, V domains shown)
VH: QVQLVESGGDVVQPGRSLRLSCAASGFTFSNYNIHWVRQAPGKGLEWVAVIRYDGINKYYADSVKGRFIISRDNSKNTLYLQMNSLRAEDTAVYYCASGPPDAFNIWGQGTMVTVSS
VL: B1 VL
